Target: KRAS G13D antigen (G13D-RT6, SEQ ID NO: 20) loaded on Lovo-DPA0301:DPB0501 cells (human)
Test: cell-based or functional assay

Row | Binder | TCR Mut RLU/WT RLU [ratio]
1 | B8.2.4 TCR mutant β97V-T (TCR, V domains shown) V domain 1: AQKITQTQPGMFVQEKEAVTLDCTYDTSDPSYGLFWYKQPSSGEMIFLIYQGSYDQQNATEGRYSLNFQKARKSANLVISASQLGDSAMYFCAMRERTGTASKLTFGTGTRLQVTL V domain 2: DVKVTQSSRYLVKRTGEKVFLECVQDMDHENMFWYRQDPGLGLRLIYFSYDVKMKEKGDIPEGYSVSREKKERFSLILESASTNQTSMYLCASSQTTPPQHFGDGTRLSILE | 0.98
2 | B8.2.4 TCR mutant β98P-D (TCR, V domains shown) V domain 1: AQKITQTQPGMFVQEKEAVTLDCTYDTSDPSYGLFWYKQPSSGEMIFLIYQGSYDQQNATEGRYSLNFQKARKSANLVISASQLGDSAMYFCAMRERTGTASKLTFGTGTRLQVTL V domain 2: DVKVTQSSRYLVKRTGEKVFLECVQDMDHENMFWYRQDPGLGLRLIYFSYDVKMKEKGDIPEGYSVSREKKERFSLILESASTNQTSMYLCASSQTVDPQHFGDGTRLSILE | 0.8
3 | B8.2.4 TCR mutant β98P-V (TCR, V domains shown) V domain 1: AQKITQTQPGMFVQEKEAVTLDCTYDTSDPSYGLFWYKQPSSGEMIFLIYQGSYDQQNATEGRYSLNFQKARKSANLVISASQLGDSAMYFCAMRERTGTASKLTFGTGTRLQVTL V domain 2: DVKVTQSSRYLVKRTGEKVFLECVQDMDHENMFWYRQDPGLGLRLIYFSYDVKMKEKGDIPEGYSVSREKKERFSLILESASTNQTSMYLCASSQTVVPQHFGDGTRLSILE | 0.63
4 | B8.2.4 TCR mutant β98P-N (TCR, V domains shown) V domain 1: AQKITQTQPGMFVQEKEAVTLDCTYDTSDPSYGLFWYKQPSSGEMIFLIYQGSYDQQNATEGRYSLNFQKARKSANLVISASQLGDSAMYFCAMRERTGTASKLTFGTGTRLQVTL V domain 2: DVKVTQSSRYLVKRTGEKVFLECVQDMDHENMFWYRQDPGLGLRLIYFSYDVKMKEKGDIPEGYSVSREKKERFSLILESASTNQTSMYLCASSQTVNPQHFGDGTRLSILE | 0.41
5 | B8.2.4 TCR mutant β98P-H (TCR, V domains shown) V domain 1: AQKITQTQPGMFVQEKEAVTLDCTYDTSDPSYGLFWYKQPSSGEMIFLIYQGSYDQQNATEGRYSLNFQKARKSANLVISASQLGDSAMYFCAMRERTGTASKLTFGTGTRLQVTL V domain 2: DVKVTQSSRYLVKRTGEKVFLECVQDMDHENMFWYRQDPGLGLRLIYFSYDVKMKEKGDIPEGYSVSREKKERFSLILESASTNQTSMYLCASSQTVHPQHFGDGTRLSILE | 0.6
6 | B8.2.4 TCR mutant β98P-F (TCR, V domains shown) V domain 1: AQKITQTQPGMFVQEKEAVTLDCTYDTSDPSYGLFWYKQPSSGEMIFLIYQGSYDQQNATEGRYSLNFQKARKSANLVISASQLGDSAMYFCAMRERTGTASKLTFGTGTRLQVTL V domain 2: DVKVTQSSRYLVKRTGEKVFLECVQDMDHENMFWYRQDPGLGLRLIYFSYDVKMKEKGDIPEGYSVSREKKERFSLILESASTNQTSMYLCASSQTVFPQHFGDGTRLSILE | 0.96
7 | B8.2.4 TCR mutant β97V-W (TCR, V domains shown) V domain 1: AQKITQTQPGMFVQEKEAVTLDCTYDTSDPSYGLFWYKQPSSGEMIFLIYQGSYDQQNATEGRYSLNFQKARKSANLVISASQLGDSAMYFCAMRERTGTASKLTFGTGTRLQVTL V domain 2: DVKVTQSSRYLVKRTGEKVFLECVQDMDHENMFWYRQDPGLGLRLIYFSYDVKMKEKGDIPEGYSVSREKKERFSLILESASTNQTSMYLCASSQTWPPQHFGDGTRLSILE | 0.52
8 | B8.2.4 TCR mutant β98P-I (TCR, V domains shown) V domain 1: AQKITQTQPGMFVQEKEAVTLDCTYDTSDPSYGLFWYKQPSSGEMIFLIYQGSYDQQNATEGRYSLNFQKARKSANLVISASQLGDSAMYFCAMRERTGTASKLTFGTGTRLQVTL V domain 2: DVKVTQSSRYLVKRTGEKVFLECVQDMDHENMFWYRQDPGLGLRLIYFSYDVKMKEKGDIPEGYSVSREKKERFSLILESASTNQTSMYLCASSQTVIPQHFGDGTRLSILE | 0.33
9 | B8.2.4 TCR mutant β98P-T (TCR, V domains shown) V domain 1: AQKITQTQPGMFVQEKEAVTLDCTYDTSDPSYGLFWYKQPSSGEMIFLIYQGSYDQQNATEGRYSLNFQKARKSANLVISASQLGDSAMYFCAMRERTGTASKLTFGTGTRLQVTL V domain 2: DVKVTQSSRYLVKRTGEKVFLECVQDMDHENMFWYRQDPGLGLRLIYFSYDVKMKEKGDIPEGYSVSREKKERFSLILESASTNQTSMYLCASSQTVTPQHFGDGTRLSILE | 0.47
10 | B8.2.4 TCR mutant β98P-Q (TCR, V domains shown) V domain 1: AQKITQTQPGMFVQEKEAVTLDCTYDTSDPSYGLFWYKQPSSGEMIFLIYQGSYDQQNATEGRYSLNFQKARKSANLVISASQLGDSAMYFCAMRERTGTASKLTFGTGTRLQVTL V domain 2: DVKVTQSSRYLVKRTGEKVFLECVQDMDHENMFWYRQDPGLGLRLIYFSYDVKMKEKGDIPEGYSVSREKKERFSLILESASTNQTSMYLCASSQTVQPQHFGDGTRLSILE | 0.45
11 | B8.2.4 TCR mutant β98P-G (TCR, V domains shown) V domain 1: AQKITQTQPGMFVQEKEAVTLDCTYDTSDPSYGLFWYKQPSSGEMIFLIYQGSYDQQNATEGRYSLNFQKARKSANLVISASQLGDSAMYFCAMRERTGTASKLTFGTGTRLQVTL V domain 2: DVKVTQSSRYLVKRTGEKVFLECVQDMDHENMFWYRQDPGLGLRLIYFSYDVKMKEKGDIPEGYSVSREKKERFSLILESASTNQTSMYLCASSQTVGPQHFGDGTRLSILE | 0.73
12 | B8.2.4 TCR mutant β98P-S (TCR, V domains shown) V domain 1: AQKITQTQPGMFVQEKEAVTLDCTYDTSDPSYGLFWYKQPSSGEMIFLIYQGSYDQQNATEGRYSLNFQKARKSANLVISASQLGDSAMYFCAMRERTGTASKLTFGTGTRLQVTL V domain 2: DVKVTQSSRYLVKRTGEKVFLECVQDMDHENMFWYRQDPGLGLRLIYFSYDVKMKEKGDIPEGYSVSREKKERFSLILESASTNQTSMYLCASSQTVSPQHFGDGTRLSILE | 0.94
13 | B8.2.4 TCR mutant β98P-W (TCR, V domains shown) V domain 1: AQKITQTQPGMFVQEKEAVTLDCTYDTSDPSYGLFWYKQPSSGEMIFLIYQGSYDQQNATEGRYSLNFQKARKSANLVISASQLGDSAMYFCAMRERTGTASKLTFGTGTRLQVTL V domain 2: DVKVTQSSRYLVKRTGEKVFLECVQDMDHENMFWYRQDPGLGLRLIYFSYDVKMKEKGDIPEGYSVSREKKERFSLILESASTNQTSMYLCASSQTVWPQHFGDGTRLSILE | 0.81
14 | B8.2.4 TCR mutant β98P-E (TCR, V domains shown) V domain 1: AQKITQTQPGMFVQEKEAVTLDCTYDTSDPSYGLFWYKQPSSGEMIFLIYQGSYDQQNATEGRYSLNFQKARKSANLVISASQLGDSAMYFCAMRERTGTASKLTFGTGTRLQVTL V domain 2: DVKVTQSSRYLVKRTGEKVFLECVQDMDHENMFWYRQDPGLGLRLIYFSYDVKMKEKGDIPEGYSVSREKKERFSLILESASTNQTSMYLCASSQTVEPQHFGDGTRLSILE | 0.99
15 | B8.2.4 TCR mutant β97V-Y (TCR, V domains shown) V domain 1: AQKITQTQPGMFVQEKEAVTLDCTYDTSDPSYGLFWYKQPSSGEMIFLIYQGSYDQQNATEGRYSLNFQKARKSANLVISASQLGDSAMYFCAMRERTGTASKLTFGTGTRLQVTL V domain 2: DVKVTQSSRYLVKRTGEKVFLECVQDMDHENMFWYRQDPGLGLRLIYFSYDVKMKEKGDIPEGYSVSREKKERFSLILESASTNQTSMYLCASSQTYPPQHFGDGTRLSILE | 0.54
16 | B8.2.4 TCR mutant β98P-M (TCR, V domains shown) V domain 1: AQKITQTQPGMFVQEKEAVTLDCTYDTSDPSYGLFWYKQPSSGEMIFLIYQGSYDQQNATEGRYSLNFQKARKSANLVISASQLGDSAMYFCAMRERTGTASKLTFGTGTRLQVTL V domain 2: DVKVTQSSRYLVKRTGEKVFLECVQDMDHENMFWYRQDPGLGLRLIYFSYDVKMKEKGDIPEGYSVSREKKERFSLILESASTNQTSMYLCASSQTVMPQHFGDGTRLSILE | 0.83
17 | B8.2.4 TCR mutant β98P-R (TCR, V domains shown) V domain 1: AQKITQTQPGMFVQEKEAVTLDCTYDTSDPSYGLFWYKQPSSGEMIFLIYQGSYDQQNATEGRYSLNFQKARKSANLVISASQLGDSAMYFCAMRERTGTASKLTFGTGTRLQVTL V domain 2: DVKVTQSSRYLVKRTGEKVFLECVQDMDHENMFWYRQDPGLGLRLIYFSYDVKMKEKGDIPEGYSVSREKKERFSLILESASTNQTSMYLCASSQTVRPQHFGDGTRLSILE | 0.73
18 | B8.2.4 TCR mutant β98P-C (TCR, V domains shown) V domain 1: AQKITQTQPGMFVQEKEAVTLDCTYDTSDPSYGLFWYKQPSSGEMIFLIYQGSYDQQNATEGRYSLNFQKARKSANLVISASQLGDSAMYFCAMRERTGTASKLTFGTGTRLQVTL V domain 2: DVKVTQSSRYLVKRTGEKVFLECVQDMDHENMFWYRQDPGLGLRLIYFSYDVKMKEKGDIPEGYSVSREKKERFSLILESASTNQTSMYLCASSQTVCPQHFGDGTRLSILE | 1.11
19 | B8.2.4 TCR mutant β98P-K (TCR, V domains shown) V domain 1: AQKITQTQPGMFVQEKEAVTLDCTYDTSDPSYGLFWYKQPSSGEMIFLIYQGSYDQQNATEGRYSLNFQKARKSANLVISASQLGDSAMYFCAMRERTGTASKLTFGTGTRLQVTL V domain 2: DVKVTQSSRYLVKRTGEKVFLECVQDMDHENMFWYRQDPGLGLRLIYFSYDVKMKEKGDIPEGYSVSREKKERFSLILESASTNQTSMYLCASSQTVKPQHFGDGTRLSILE | 0.47
20 | B8.2.4 TCR mutant β98P-L (TCR, V domains shown) V domain 1: AQKITQTQPGMFVQEKEAVTLDCTYDTSDPSYGLFWYKQPSSGEMIFLIYQGSYDQQNATEGRYSLNFQKARKSANLVISASQLGDSAMYFCAMRERTGTASKLTFGTGTRLQVTL V domain 2: DVKVTQSSRYLVKRTGEKVFLECVQDMDHENMFWYRQDPGLGLRLIYFSYDVKMKEKGDIPEGYSVSREKKERFSLILESASTNQTSMYLCASSQTVLPQHFGDGTRLSILE | 0.67
21 | B8.2.4 TCR mutant β98P-A (TCR, V domains shown) V domain 1: AQKITQTQPGMFVQEKEAVTLDCTYDTSDPSYGLFWYKQPSSGEMIFLIYQGSYDQQNATEGRYSLNFQKARKSANLVISASQLGDSAMYFCAMRERTGTASKLTFGTGTRLQVTL V domain 2: DVKVTQSSRYLVKRTGEKVFLECVQDMDHENMFWYRQDPGLGLRLIYFSYDVKMKEKGDIPEGYSVSREKKERFSLILESASTNQTSMYLCASSQTVAPQHFGDGTRLSILE | 0.5

Source: patent US20240123070A1 (SHANGHAI GENBASE BIOTECHNOLOGY, published 2024)
